Target: T1, ARNO's GEF activity with Arf6 (Homo sapiens, UniProt Q99418)
T1 sequence (Q99418 1-400): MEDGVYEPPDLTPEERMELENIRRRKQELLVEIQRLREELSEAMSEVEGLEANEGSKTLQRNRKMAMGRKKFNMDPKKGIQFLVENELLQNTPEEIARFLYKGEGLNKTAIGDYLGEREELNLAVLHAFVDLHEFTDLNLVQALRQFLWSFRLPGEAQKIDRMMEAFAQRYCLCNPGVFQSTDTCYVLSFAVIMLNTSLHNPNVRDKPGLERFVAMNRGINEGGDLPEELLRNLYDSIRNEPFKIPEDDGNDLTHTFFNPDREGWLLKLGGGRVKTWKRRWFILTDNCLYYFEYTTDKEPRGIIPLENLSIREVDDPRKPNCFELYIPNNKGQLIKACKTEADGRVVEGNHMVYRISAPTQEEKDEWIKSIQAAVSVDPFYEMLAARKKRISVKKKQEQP
Experiment: radiolabel GDP/GTP-exchange (GEF) activity assay of ARNO with Arf6
Assay type: biochemical
Details: recombinant protein
Method: To test the effect of V-ATPase-derived peptides on enzymatic activity of small GTPases, the GDP/GTP exchange activity assay of ARNO with Arf6 was established in the presence of GTPγS and phospholipids vesicles containing various amounts of phosphatidylinositol PIP2 (FIG. 8).
Phospholipid vesicles were prepared by the extrusion method (Macia and Paris Biochemistry, 39: 5893-5901 (2000)). The lipids were dissolved in chloroform. A film of phospholipids was formed by evaporating chloroform and was resuspended in 50 mM Hepes, pH 7.5, and 1 mM dithiothreitol. The suspension was freeze-thawed 3 times and was passed through a 0.1 μm pore size polycarbonate filter.
GDP/GTP-exchange activity of ARNO was measured using time-course radiolabel based assay as previously described (Santy et al., Curr Biol. 9:1173-1176 (1999)). […] After washing filters 3 times with 2 ml of stop buffer, radioactivity was quantified using Perkin-Elmer “Tri-Carb 2900TR” liquid-scintillation counter.
In peptide-inhibition experiments, 500 nM of recombinant ARNO were incubated in the presence of different amounts (0-2000 nM) of FITC-a2N-01-TAT peptide or FITC-TAT peptide as a control. […] The enzymatic activities were followed for 30 min at 37° C. and radioactivity of aliquots were analyzed as described above.

B1: a2N: recombinant N-terminal cytosolic tail, amino acid residues 1-402 of mouse V-ATPase a2-subunit (protein)
chain: MGSLFRSESMCLAQLFLQSGTAYECLSALGEKGLVQFRDLNQNVSSFQRKFVGEVKRCEELERILVYLVQEITRADIPLPEGEASPPAPPLKHVLEMQEQLQKLEVELREVTKNKEKLRKNLLELVEYTHMLRVTKTFLKRNVEFEPTYEEFPALENDSLLDYSCMQRLGAKLGFVSGLIQQGRVEAFERMLWRACKGYTIVTYAELDECLEDPETGEVIKWYVFLISFWGEQIGHKVKKICDCYHCHIYPYPNTAEERREIQEGLNTRIQDLYTVLHKTEDYLRQVLCKAAESVCSRVVQVRKMKAIYHMLNMCSFDVTNKCLIAEVWCPEVDLPGLRRALEEGSRESGATIPSFMNTIPTKETPPTLIRTNKFTEGFQNIVDAYGVGSYREVNPALFTII
modifications: left off: small tags and cut ends
notes: recombinant N-terminal cytosolic tail, amino acid residues 1-402 of mouse V-ATPase a2-subunit
modulation of GDP/GTP-exchange activity of ARNO: successfully used to modulate
